The values that follow come from patent US20230167164A1 (IMMUNOWAKE, published 2023).

Where a chain is given by its changes, count along the chain named. In names and notes the source's numbering stands.

The target in assay [1] is T1, human PD-1 (human, UniProt Q15116 25-167, limits assumed).
T1 construct: nivolumab is called an anti-human PD-1 antibody; also called hPD-1
As to the kind of experiment: PD-L2-Fc format, calibrated on PD-L2(wt)-Fc binding affinity.

The target of a further assay is T2, mouse PD-1 (mouse, UniProt Q02242 25-167, limits assumed).
T2 construct: also called mPD-1
T2 sequence (looked up): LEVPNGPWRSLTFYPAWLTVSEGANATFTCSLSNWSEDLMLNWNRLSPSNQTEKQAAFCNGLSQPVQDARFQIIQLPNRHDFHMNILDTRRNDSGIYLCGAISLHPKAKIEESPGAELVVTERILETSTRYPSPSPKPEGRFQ
The assay is described as above.

The target of the next assay is T3, CD8 on CD8+ T cells (human, UniProt P01732 22-235).
T3 construct: whole, on cells
Put plainly: FACS on CD8+ T cells.

The target in assay [2] is human IL-12 receptor complex (human, UniProt P42701 24-662; Q99665 24-862). Put plainly: cell-based or functional assay.
The next assay has as its target IL-23 receptor complex (UniProt P42701 24-662; Q5VWK5 24-629, limits assumed). Put plainly: cell-based or functional assay.
The target in assay [3] is T1, human PD-1. As to the kind of experiment: Biacore and cell-based assays, calibrated by wildtype nivolumab binding affinity. (In general: In SPR one partner is held on a chip, and binding of the other changes the refractive index at the surface.)

T1 sequence (Q15116 25-167 limits assumed): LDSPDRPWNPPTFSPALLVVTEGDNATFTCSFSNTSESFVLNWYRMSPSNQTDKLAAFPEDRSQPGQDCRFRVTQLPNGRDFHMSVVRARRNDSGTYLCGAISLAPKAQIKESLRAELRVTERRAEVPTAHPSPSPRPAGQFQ
Chain of IL-23 receptor complex (Q5VWK5 24-629 limits assumed, chain 2 of 2, other chains not shown): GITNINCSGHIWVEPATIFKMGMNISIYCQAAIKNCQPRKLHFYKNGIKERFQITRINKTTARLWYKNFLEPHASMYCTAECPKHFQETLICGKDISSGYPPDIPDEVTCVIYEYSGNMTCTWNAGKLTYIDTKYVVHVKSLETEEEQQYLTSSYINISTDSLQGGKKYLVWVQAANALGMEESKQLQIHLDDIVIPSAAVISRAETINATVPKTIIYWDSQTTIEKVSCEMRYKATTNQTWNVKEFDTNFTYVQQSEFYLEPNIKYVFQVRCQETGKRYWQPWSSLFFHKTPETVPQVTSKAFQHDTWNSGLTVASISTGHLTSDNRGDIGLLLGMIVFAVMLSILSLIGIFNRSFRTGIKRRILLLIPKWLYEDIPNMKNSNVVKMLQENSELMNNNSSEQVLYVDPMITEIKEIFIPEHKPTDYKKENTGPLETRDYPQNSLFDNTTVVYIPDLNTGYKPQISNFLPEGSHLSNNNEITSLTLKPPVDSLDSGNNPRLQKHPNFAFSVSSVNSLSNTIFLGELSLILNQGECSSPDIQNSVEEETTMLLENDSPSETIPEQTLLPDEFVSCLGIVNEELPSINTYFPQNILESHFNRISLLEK
Chain of human IL-12 receptor complex (Q99665 24-862, chain 2 of 2, other chains not shown): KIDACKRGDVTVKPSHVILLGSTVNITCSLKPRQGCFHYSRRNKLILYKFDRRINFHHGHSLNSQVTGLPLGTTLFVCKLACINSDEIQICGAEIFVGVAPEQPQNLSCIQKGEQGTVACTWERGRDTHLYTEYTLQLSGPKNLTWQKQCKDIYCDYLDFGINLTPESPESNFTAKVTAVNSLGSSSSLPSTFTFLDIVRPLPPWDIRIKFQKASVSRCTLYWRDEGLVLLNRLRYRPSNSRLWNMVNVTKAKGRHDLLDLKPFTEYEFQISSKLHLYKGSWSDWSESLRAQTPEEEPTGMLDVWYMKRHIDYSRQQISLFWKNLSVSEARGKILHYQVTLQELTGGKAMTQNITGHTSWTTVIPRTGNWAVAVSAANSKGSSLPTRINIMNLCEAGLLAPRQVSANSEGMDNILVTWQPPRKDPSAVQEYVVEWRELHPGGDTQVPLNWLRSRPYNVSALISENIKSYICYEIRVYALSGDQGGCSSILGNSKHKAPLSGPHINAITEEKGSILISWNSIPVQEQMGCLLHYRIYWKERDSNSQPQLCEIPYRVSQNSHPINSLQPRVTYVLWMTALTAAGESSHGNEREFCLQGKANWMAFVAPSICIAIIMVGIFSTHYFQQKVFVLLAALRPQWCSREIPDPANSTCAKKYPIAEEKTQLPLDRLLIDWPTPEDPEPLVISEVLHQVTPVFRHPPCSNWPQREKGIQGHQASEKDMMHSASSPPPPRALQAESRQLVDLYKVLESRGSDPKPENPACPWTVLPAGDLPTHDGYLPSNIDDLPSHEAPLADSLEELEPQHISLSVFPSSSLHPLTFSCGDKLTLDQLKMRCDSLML
T3 sequence (P01732 22-235): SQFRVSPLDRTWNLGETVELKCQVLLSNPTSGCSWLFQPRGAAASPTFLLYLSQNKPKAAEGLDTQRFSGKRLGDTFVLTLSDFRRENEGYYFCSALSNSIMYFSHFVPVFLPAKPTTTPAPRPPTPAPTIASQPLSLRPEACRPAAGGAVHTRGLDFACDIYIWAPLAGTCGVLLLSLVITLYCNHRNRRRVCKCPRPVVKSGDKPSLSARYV

B1: PD-L2(mut1)-Fc (Fc fusion)
chain 1: LFTVTVPKELYIIEHGSNVTLECNFDTGSHVNLGAIVASLQKVENDTSPHRERATLLEEQLPLGKASFHIPQVQVRDEGQYQCIIIYGVAWDYKYLTLKVKASYRKINTHILKVPETDEVELTCQATGYPLAEVSWPNVSVPANTSHSRTPEGLYQVTSVLRLKPPPGRNFSCVFWNTHVRELTLASIDLQSQMEPRTHPTDKTHTCPPCPAPEDEGGPSVFLFPPKPKDTLMISRTPEVTCVVVDVSHEDPEVKFNWYVDGVEVHNAKTKPREEQYNSTYRVVSVLTVLHQDWLNGKEYKCKVSNKALPAPIEKTISKAKGQPREPQVYVYPPSREEMTKNQVSLTCLVKGFYPSDIAVEWESNGQPENNYKTTPPVLDEDGSFALVSKLTVDKSRWQQGNVFSCSVMHEALHNHYTQKSLSLSPGK
chain 2: B1 chain 1 with D215K, E216K, Y332L, T347L, N371R, K373M, T375W, E381S, A386F, V388Y
notes: also called T56V
For orientation: Kd means the equilibrium constant for the complex coming apart. Low values mean a tighter complex, high ones a looser complex. Consider B1, for which the values for the dissociation constant Kd in the assay with human PD-1 [1] and with mouse PD-1 were 520 nM and 430 nM, respectively.

B2: PD-L2(mut2)-Fc (Fc fusion)
chain 1: B1 chain 1 with V37T, S39V
chain 2: LFTVTVPKELYIIEHGSNVTLECNFDTGSHVNLGAITAVLQKVENDTSPHRERATLLEEQLPLGKASFHIPQVQVRDEGQYQCIIIYGVAWDYKYLTLKVKASYRKINTHILKVPETDEVELTCQATGYPLAEVSWPNVSVPANTSHSRTPEGLYQVTSVLRLKPPPGRNFSCVFWNTHVRELTLASIDLQSQMEPRTHPTDKTHTCPPCPAPEKKGGPSVFLFPPKPKDTLMISRTPEVTCVVVDVSHEDPEVKFNWYVDGVEVHNAKTKPREEQYNSTYRVVSVLTVLHQDWLNGKEYKCKVSNKALPAPIEKTISKAKGQPREPQVYVLPPSREEMTKNQVSLLCLVKGFYPSDIAVEWESNGQPENRYMTWPPVLDSDGSFFLYSKLTVDKSRWQQGNVFSCSVMHEALHNHYTQKSLSLSPGK
notes: also called PD-L2(S58V)
As to B2, the Kd in the assay with human PD-1 [1] came to 350 nM; with mouse PD-1, 230 nM.

B3: PD-L2(mut3)-Fc (Fc fusion)
chain 1: B1 chain 1 with V37T, Q41L
chain 2: B2 chain 2 with V39S, Q41L
notes: also called Q60L
Regarding B3, the Kd is 490 nM in the assay with human PD-1 [1] and 320 nM with mouse PD-1.

B4: PD-L2(mut4)-Fc (Fc fusion)
chain 1: B1 chain 1 with S39V, Q41L
chain 2: B2 chain 2 with T37V, Q41L
notes: also called PD-L2(T56V/S58V/Q60L)
On to B4, for which the equilibrium dissociation constant (Kd) with human PD-1 [1] came to 255 nM; in the assay with mouse PD-1, 220 nM.

B5: Fab-IL-12(WT)-Fc-CD4 Ab (other)
heavy 1: QVQLQQSGPEVVKPGASVKMSCKASGYTFTSYVIHWVRQKPGQGLDWIGYINPYNDGTDYDEKFKGKATLTSDTSTSTAYMELSSLRSEDTAVYYCAREKDNYATGAWFAYWGQGTLVTVSSASTKGPSVFPLAPSSKSTSGGTAALGCLVKDYFPEPVTVSWNSGALTSGVHTFPAVLQSSGLYSLSSVVTVPSSSLGTQTYICNVNHKPSNTKVDKKVEPKSCDKPGSGIWELKKDVYVVELDWYPDAPGEMVVLTCDTPEEDGITWTLDQSSEVLGSGKTLTIQVKEFGDAGQYTCHKGGEVLSHSLLLLHKKEDGIWSTDILKDQKEPKNKTFLRCEAKNYSGRFTCWWLTTISTDLTFSVKSSRGSSDPQGVTCGAATLSAERVRGDNKEYEYSVECQEDSACPAAEESLPIEVMVDAVHKLKYENYTSSFFIRDIIKPDPPKNLQLKPLKNSRQVEVSWEYPDTWSTPHSYFSLTFCVQVQGKSKREKKDRVFTDKTSATVICRKNASISVRAQDRYYSSSWSEWASVPCSGGGGSGGGGSGGGGSGGGGSGRNLPVATPDPGMFPCLHHSQNLLRAVSNMLQKARQTLEFYPCTSEEIDHEDITKDKTSTVEACLPLELTKNESCLNSRETSFITNGSCLASRKTSFMMALCLSSIYEDLKMYQVEFKTMNAKLLMDPKRQIFLDQNMLAVIDELMQALNFNSETVPQKSSLEEPDFYKTKIKLCILLHAFRIRAVTIDRVMSYLNASDKTHTCPPCPAPEDEGGPSVFLFPPKPKDTLMISRTPEVTCVVVDVSHEDPEVKFNWYVDGVEVHNAKTKPREEQYNSTYRVVSVLTVLHQDWLNGKEYKCKVSNKALPAPIEKTISKAKGQPREPQVYVYPPSREEMTKNQVSLTCLVKGFYPSDIAVEWESNGQPENNYKTTPPVLDEDGSFALVSKLTVDKSRWQQGNVFSCSVMHEALHNHYTQKSLSLSPGK
heavy 2: QVQLQQSGPEVVKPGASVKMSCKASGYTFTSYVIHWVRQKPGQGLDWIGYINPYNDGTDYDEKFKGKATLTSDTSTSTAYMELSSLRSEDTAVYYCAREKDNYATGAWFAYWGQGTLVTVSSASTKGPSVFPLAPSSKSTSGGTAALGCLVKDYFPEPVTVSWNSGALTSGVHTFPAVLQSSGLYSLSSVVTVPSSSLGTQTYICNVNHKPSNTKVDKKVEPKSCDKTHTCPPCPAPEKKGGPSVFLFPPKPKDTLMISRTPEVTCVVVDVSHEDPEVKFNWYVDGVEVHNAKTKPREEQYNSTYRVVSVLTVLHQDWLNGKEYKCKVSNKALPAPIEKTISKAKGQPREPQVYVLPPSREEMTKNQVSLLCLVKGFYPSDIAVEWESNGQPENRYMTWPPVLDSDGSFFLYSKLTVDKSRWQQGNVFSCSVMHEALHNHYTQKSLSLSPGK
light: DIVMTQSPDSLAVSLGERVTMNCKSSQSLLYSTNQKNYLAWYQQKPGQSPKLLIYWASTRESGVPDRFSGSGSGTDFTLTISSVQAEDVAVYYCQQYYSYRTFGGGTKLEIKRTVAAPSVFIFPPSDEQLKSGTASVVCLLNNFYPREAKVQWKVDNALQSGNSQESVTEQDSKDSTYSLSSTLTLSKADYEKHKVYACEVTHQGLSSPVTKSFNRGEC
On to B5, for which the binding result with CD8 on CD8+ T cells is recorded as “no binding”. For the same molecule, in assay [2], the “IFN-γ release, % of rIL-12, activated CD8+ T cells” value was 25%.

B6: Fab-IL-23(WT)-Fc-CD4 Ab (other)
heavy 1: QVQLQQSGPEVVKPGASVKMSCKASGYTFTSYVIHWVRQKPGQGLDWIGYINPYNDGTDYDEKFKGKATLTSDTSTSTAYMELSSLRSEDTAVYYCAREKDNYATGAWFAYWGQGTLVTVSSASTKGPSVFPLAPSSKSTSGGTAALGCLVKDYFPEPVTVSWNSGALTSGVHTFPAVLQSSGLYSLSSVVTVPSSSLGTQTYICNVNHKPSNTKVDKKVEPKSCDKPGSGIWELKKDVYVVELDWYPDAPGEMVVLTCDTPEEDGITWTLDQSSEVLGSGKTLTIQVKEFGDAGQYTCHKGGEVLSHSLLLLHKKEDGIWSTDILKDQKEPKNKTFLRCEAKNYSGRFTCWWLTTISTDLTFSVKSSRGSSDPQGVTCGAATLSAERVRGDNKEYEYSVECQEDSACPAAEESLPIEVMVDAVHKLKYENYTSSFFIRDIIKPDPPKNLQLKPLKNSRQVEVSWEYPDTWSTPHSYFSLTFCVQVQGKSKREKKDRVFTDKTSATVICRKNASISVRAQDRYYSSSWSEWASVPCSGGGGSGGGGSGGGGSGGGGSGRAVPGGSSPAWTQCQQLSQKLCTLAWSAHPLVGHMDLREEGDEETTNDVPHIQCGDGCDPQGLRDNSQFCLQRIHQGLIFYEKLLGSDIFTGEPSLLPDSPVGQLHASLLGLSQLLQPEGHHWETQQIPSLSPSQPWQRLLLRFKILRSLQAFVAVAARVFAHGAATLSPDKTHTCPPCPAPEDEGGPSVFLFPPKPKDTLMISRTPEVTCVVVDVSHEDPEVKFNWYVDGVEVHNAKTKPREEQYNSTYRVVSVLTVLHQDWLNGKEYKCKVSNKALPAPIEKTISKAKGQPREPQVYVYPPSREEMTKNQVSLTCLVKGFYPSDIAVEWESNGQPENNYKTTPPVLDEDGSFALVSKLTVDKSRWQQGNVFSCSVMHEALHNHYTQKSLSLSPGK
heavy 2: B5 heavy 2
light: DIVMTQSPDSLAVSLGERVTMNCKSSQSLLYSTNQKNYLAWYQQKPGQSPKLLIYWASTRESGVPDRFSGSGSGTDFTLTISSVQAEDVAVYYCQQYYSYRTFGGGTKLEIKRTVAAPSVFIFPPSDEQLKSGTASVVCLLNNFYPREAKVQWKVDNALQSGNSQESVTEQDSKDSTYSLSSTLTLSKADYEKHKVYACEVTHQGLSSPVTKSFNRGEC
B6: the binding result with CD8 on CD8+ T cells is “no binding”. For the same molecule, in the assay with IL-23 receptor complex, the “IFN-γ release, % of rIL-23, activated CD8+ T cells” value was 21%.

B7: Fab-IL-12(E59A)-Fc-CD4 Ab (other)
heavy 1: B5 heavy 1 with E290A
heavy 2: B5 heavy 2
light: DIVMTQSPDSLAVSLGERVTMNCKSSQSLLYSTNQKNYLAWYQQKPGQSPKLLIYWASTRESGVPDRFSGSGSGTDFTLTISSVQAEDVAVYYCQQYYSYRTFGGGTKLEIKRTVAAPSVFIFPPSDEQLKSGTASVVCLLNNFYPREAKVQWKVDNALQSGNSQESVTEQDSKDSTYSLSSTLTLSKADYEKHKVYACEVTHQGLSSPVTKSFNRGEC
Take B7: in the assay with CD8 on CD8+ T cells, the binding result is listed as “no binding”. The “IFN-γ release, % of rIL-12, activated CD8+ T cells” value in assay [2] was determined as 1.1%.

B8: Fab-IL-23(E59A/F60A)-Fc-CD4 Ab (other)
heavy 1: B6 heavy 1 with E290A, F291A
heavy 2: B5 heavy 2
light: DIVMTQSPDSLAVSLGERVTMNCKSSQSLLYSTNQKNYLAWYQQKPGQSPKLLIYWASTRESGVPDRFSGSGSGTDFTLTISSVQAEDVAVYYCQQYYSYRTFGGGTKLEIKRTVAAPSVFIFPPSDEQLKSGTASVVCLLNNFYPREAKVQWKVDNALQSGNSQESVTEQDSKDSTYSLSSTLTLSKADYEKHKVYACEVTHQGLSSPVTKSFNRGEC
For B8, the binding result with CD8 on CD8+ T cells is “no binding”. Further, the “IFN-γ release, % of rIL-23, activated CD8+ T cells” value with IL-23 receptor complex was determined as 0%.

B9: Fab-IL-23(F60A)-Fc-CD4 Ab (other)
heavy 1: B6 heavy 1 with F291A
heavy 2: B5 heavy 2
light: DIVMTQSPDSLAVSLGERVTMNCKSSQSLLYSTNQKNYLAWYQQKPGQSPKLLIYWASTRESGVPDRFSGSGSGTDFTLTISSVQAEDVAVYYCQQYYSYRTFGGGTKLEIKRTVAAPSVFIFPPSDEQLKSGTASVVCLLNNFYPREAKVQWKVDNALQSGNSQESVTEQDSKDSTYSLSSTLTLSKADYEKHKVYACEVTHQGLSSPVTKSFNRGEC
B9: the “IFN-γ release, % of rIL-23, activated CD8+ T cells” value with IL-23 receptor complex is 1.5%.

B10: Fab-IL-23(E59A)-Fc-CD4 Ab (other)
heavy 1: B6 heavy 1 with E290A
heavy 2: B5 heavy 2
light: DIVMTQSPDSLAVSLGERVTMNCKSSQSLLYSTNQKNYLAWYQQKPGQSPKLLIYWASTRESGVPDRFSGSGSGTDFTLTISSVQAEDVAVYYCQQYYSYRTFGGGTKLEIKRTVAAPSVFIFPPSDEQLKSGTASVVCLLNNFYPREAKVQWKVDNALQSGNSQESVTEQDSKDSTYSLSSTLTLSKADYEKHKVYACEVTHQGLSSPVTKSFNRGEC
Regarding B10, the “IFN-γ release, % of rIL-23, activated CD8+ T cells” value in the assay with IL-23 receptor complex was 2%.

B11: Fab-IL-12(E59A/F60A)-Fc-CD4 Ab (other)
heavy 1: B5 heavy 1 with E290A, F291A
heavy 2: B5 heavy 2
light: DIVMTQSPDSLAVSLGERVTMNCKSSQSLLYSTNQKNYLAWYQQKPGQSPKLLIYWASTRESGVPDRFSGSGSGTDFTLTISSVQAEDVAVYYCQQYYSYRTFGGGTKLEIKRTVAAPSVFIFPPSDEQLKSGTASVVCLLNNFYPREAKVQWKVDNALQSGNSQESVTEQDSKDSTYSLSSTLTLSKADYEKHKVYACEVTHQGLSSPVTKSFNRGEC
For the molecule B11, the binding result with CD8 on CD8+ T cells is “no binding”. In assay [2], the “IFN-γ release, % of rIL-12, activated CD8+ T cells” value amounted to 0%.

B12: Fab-IL-12(F60A)-Fc-CD4 Ab (other)
heavy 1: B5 heavy 1 with F291A
heavy 2: B5 heavy 2
light: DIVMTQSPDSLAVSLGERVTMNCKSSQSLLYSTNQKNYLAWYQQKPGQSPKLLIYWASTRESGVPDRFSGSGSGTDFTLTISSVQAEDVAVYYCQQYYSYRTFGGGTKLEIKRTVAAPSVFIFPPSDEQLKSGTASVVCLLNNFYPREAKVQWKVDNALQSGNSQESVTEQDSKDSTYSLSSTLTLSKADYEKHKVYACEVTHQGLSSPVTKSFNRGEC
In the case of B12, in the assay with CD8 on CD8+ T cells, the binding result is “no binding”. Further, the “IFN-γ release, % of rIL-12, activated CD8+ T cells” value in assay [2] is 1.5%.

B13: anti-PD-1 antibody HC-CDR3(D100G) (antibody, IgG1, V domains shown)
VH: QVQLVESGGGVVQPGRSLRLDCKASGITFSNSGMHWVRQAPGKGLEWVAVIWYDGSKRYYADSVKGRFTISRDNSKNTLFLQMNSLRAEDTAVYYCATNGDYWGQGTLVTVSS
VL: EIVLTQSPATLSLSPGERATLSCRASQSVSSYLAWYQQKPGQAPRLLIYDASNRATGIPARFSGSGSGTDFTLTISSLEPEDFAVYYCQQSSNWPRTFGQGTKVEIKR
notes: heterodimeric IgG1 as the WT antibody
On to B13, for which the Kd with human PD-1 [3] is 130 nM.

B14: anti-PD-1 antibody HC-CDR3(D100R) (antibody, IgG1, V domains shown)
VH: B13 VH with G100R
VL: B13 VL
notes: as for B13
As for B14, in the assay with human PD-1 [3], the affinity, expressed as Kd, was 910 nM.

B15: anti-PD-1 antibody HC-CDR3(D100N) (antibody, IgG1, V domains shown)
VH: B13 VH with G100N
VL: B13 VL
notes: as for B13
In turn, B15 came in with a Kd with human PD-1 [3] of 25 nM.

B16: anti-PD-1 antibody HC-CDR3(N99G) (antibody, IgG1, V domains shown)
VH: B13 VH with N99G, G100D
VL: B13 VL
notes: as for B13
Take B16: the Kd with human PD-1 [3] was determined as 2300 nM.
